How the values were obtained:
Format in all cases: cell-based, human
[1] = test system: wild-type and variant SNAP-GIPR; assay: Surface SNAP-GIPR expression (SNAP-tag labelling) in AD293 cells; details: for AD293 Surface: Fig S3E, mean; for Surface SNAP-GIPR expression: sheet Fig 1C;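 on all read-outs here: scaled to the experimental average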
Outline: (§1)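 Surface GIPR is quantified from wide-field images after labelling intact transfected cells with a membrane-impermeant SNAP probe at 500 nM for 10 min at room temperature. Specific signal, corrected for nontransfected cells, is normalized to the experiment-wide average or to wild-type.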

[2] = test system: wild-type and variant SNAP-GIPR; assay: Surface SNAP-GIPR expression (SNAP-tag labelling) in INS-1 cells; details: Fig 4G; Mean
Outline: as §1

[3] = test system: wild-type and variant SNAP-GIPR; assay: Constitutive and agonist-mediated internalization, reversible SNAP-tag labelling, AD293 cells; set-up: key to Internalisation, Vehicle / Internalisation, +GIP / Internalisation, GIP-only: % internalization: residual fluorescence after Mesna vs pre-Mesna; Surface expression: unit not given here; details: Mean
Outline: (§2)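 Surface SNAP-GIPR signal removable by Mesna was tracked by imaging before and 10 min after treatment in pH 8.6 TNE buffer. Internalization is the Mesna-resistant share of specific fluorescence.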

[4] = test system: wild-type and variant SNAP-GIPR; assay: cADDis cAMP imaging in AD293 cells, ensemble, expression-matched and per decile; details: Fig S3F, cADDis, mean
Outline: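 Per-cell cAMP from cADDis intensity over time, with cells excluded by IBMX/FSK response criteria. Expression matching used wild-type surface-SNAP deciles, top and bottom trimmed, mean of decile means. Ensemble values ignore deciles. Wide-field imaging at 37 °C in KRBH with 6 mM glucose, 0.1% BSA, 24 h post-transfection in AD293.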

[5] = test system: wild-type and variant SNAP-GIPR; assay: Single-concentration GIP cAMP response by HTRF in AD293 cells; details: Fig S3F, HTRF, mean;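 further: ratio to experiment-wide average response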
Experimental: (§3) All variants were tested in parallel on each occasion to control for transfection efficiency differences between experiments.

[6] = test system: wild-type and variant SNAP-GIPR; assay: Constitutive and agonist-mediated internalization, reversible SNAP-tag labelling, INS-1 cells; set-up: key to Internalisation, GIP-only / Internalisation, Vehicle / Internalisation, +GIP: % internalization: residual fluorescence after Mesna vs pre-Mesna; details: Mean
Outline: as §2

[7] = test system: wild-type and variant SNAP-GIPR; assay: Single-concentration GIP cAMP response by HTRF in INS-1 cells; details: Fig S3E, mean
Experimental: as §3

B1: R183Q (protein, UniProt P48546 22-466, looked up, variant R183Q)
Gastric inhibitory …: RAETGSKGQTAGELYQRWERYRRECQETLAAAEPPSGLACNGSFDMYVCWDYAAPNATARASCPWYLPWHHHVAAGFVLRQCGSDGQWGLWRDHTQCENPEKNEAFLDQRLILERLQVMYTVGYSLSLATLLLALLILSLFRRLHCTRNYIHINLFTSFMLQAAAILSRDRLLPRPGPYLGDQALALWNQALAACRTAQIVTQYCVGANYTWLLVEGVYLHSLLVLVGGSEEGHFRYYLLLGWGAPALFVIPWVIVRYLYENTQCWERNEVKAIWWIIRTPILMTILINFLIFIRILGILLSKLRTRQMRCRDYRLRLARSTLTLVPLLGVHEVVFAPVTEEQARGALRFAKLGFEIFLSSFQGFLVSVLYCFINKEVQSEIRRGWHHCRLRRSLGEEQRQLPERAFRALPSGSGPGEVPTSRGLSSGTLPGPGNEASRELESYC
Question: How did the “AD293 Surface” value ([1]; column repeated, paired with cAMP 100 nM) turn out when B1 was run?
Answer: 0.6425

Question: What about the “AD293 Surface” value ([1]; paired with cAMP 100 pM) of the same molecule?
Answer: 0.6425

Question: And the “Surface SNAP-GIPR expression” value ([1]; replicate 1)?
Answer: 0.7543

Question: What about the “Surface SNAP-GIPR expression” value ([1]; replicate 2) of the same molecule?
Answer: 1.106

Question: And the “Surface SNAP-GIPR expression” value ([1]; replicate 3)?
Answer: 0.9536

Question: And the “Surface SNAP-GIPR expression” value ([1]; replicate 4)?
Answer: 0.232

Question: And the “Surface SNAP-GIPR expression” value ([1]; replicate 5)?
Answer: 0.7423

Question: What about the “Surface SNAP-GIPR expression” value ([1]; replicate 6) of the same molecule?
Answer: 0.6069

Question: And the “Surface SNAP-GIPR expression” value ([1]; replicate 7)?
Answer: 1.15

Question: What about the “Surface SNAP-GIPR expression” value ([1]; replicate 8) of the same molecule?
Answer: 0.9044

Question: What about the “Surface SNAP-GIPR expression” value ([1]; replicate 9) of the same molecule?
Answer: 0.5747

Question: What about the “Surface SNAP-GIPR expression” value ([1]; replicate 10) of the same molecule?
Answer: 0.6709

Question: And the “Surface SNAP-GIPR expression” value ([1]; replicate 11)?
Answer: 0.6959

Question: What about the “Surface SNAP-GIPR expression” value ([1]; replicate 12) of the same molecule?
Answer: 0.6048

Question: And the “Surface SNAP-GIPR expression” value ([1]; replicate 13)?
Answer: 0.2083

Question: What about the “Surface SNAP-GIPR expression” value ([1]; replicate 14) of the same molecule?
Answer: 0.4922

Question: And the “Surface SNAP-GIPR expression” value ([1]; replicate 15)?
Answer: 0.6065

Question: What about the “Surface SNAP-GIPR expression” value ([1]; replicate 16) of the same molecule?
Answer: 0.716

Question: And the “Surface SNAP-GIPR expression” value ([1]; replicate 17)?
Answer: 0.7375

Question: What about the “Surface SNAP-GIPR expression” value ([1]; replicate 18) of the same molecule?
Answer: 0.5932

Question: What about the “Surface SNAP-GIPR expression” value ([1]; replicate 19) of the same molecule?
Answer: 0.8135

Question: And the “Surface SNAP-GIPR expression” value ([1]; replicate 20)?
Answer: 0.672

Question: And the “Surface SNAP-GIPR expression” value ([1]; replicate 21)?
Answer: 0.7253

Question: And the “Surface SNAP-GIPR expression” value ([1]; replicate 22)?
Answer: 0.7101

Question: And the “Surface SNAP-GIPR expression” value ([1]; replicate 23)?
Answer: 0.6734

Question: What about the “Surface SNAP-GIPR expression” value ([1]; replicate 24) of the same molecule?
Answer: 0.6371

Question: What about the “Surface SNAP-GIPR expression” value ([1]; replicate 25) of the same molecule?
Answer: 0.6035

Question: What about the “Surface SNAP-GIPR expression” value ([1]; replicate 26) of the same molecule?
Answer: 0.6412

Question: And the “Surface SNAP-GIPR expression” value ([1]; replicate 27)?
Answer: 0.6638

Question: And the “Surface SNAP-GIPR expression” value ([1]; replicate 28)?
Answer: 0.5579

Question: What about the “Surface SNAP-GIPR expression” value ([1]; replicate 29) of the same molecule?
Answer: 0.6957

Question: What about the “Surface SNAP-GIPR expression” value ([1]; replicate 30) of the same molecule?
Answer: 0.2984

Question: What about the “Surface SNAP-GIPR expression” value ([1]; replicate 31) of the same molecule?
Answer: 0.1821

Question: What about the “Surface SNAP-GIPR expression” value ([1]; replicate 32) of the same molecule?
Answer: 0.3718

Question: And the “Surface SNAP-GIPR expression” value ([1]; replicate 33)?
Answer: 0.3193

Question: What about the “Surface SNAP-GIPR expression” value ([1]; replicate 34) of the same molecule?
Answer: 0.6173

Question: And the “Surface SNAP-GIPR expression” value ([1]; replicate 35)?
Answer: 0.7865

Question: What about the “Surface SNAP-GIPR expression” value ([1]; replicate 36) of the same molecule?
Answer: 0.6007

Question: And the “Surface SNAP-GIPR expression” value ([1]; replicate 37)?
Answer: 0.5904

Question: And the “Surface SNAP-GIPR expression” value ([1]; replicate 38)?
Answer: 0.7906

Question: And the “Surface SNAP-GIPR expression” value ([1]; replicate 39)?
Answer: 0.7153

Question: And the “Surface SNAP-GIPR expression” value ([1]; replicate 40)?
Answer: 0.6916

Question: And the “Surface SNAP-GIPR expression” value ([1]; replicate 41)?
Answer: 0.6376

Question: What about the Surface expression [2] of the same molecule?
Answer: 0.8445

Question: What about the “+GIP internalisation (100 nM)” value ([3]; Fig 4E, GIP 100 nM) of the same molecule?
Answer: 0.3247

Question: And the “GIP-specific internalisation (100 nM)” value ([3]; Fig 4E, GIP 100 nM)?
Answer: 0.02672

Question: What about the “Constitutive internalisation (100 nM)” value ([3]; Fig 4E) of the same molecule?
Answer: 0.298

Question: What about the Surface expression ([3]; Fig 4E) of the same molecule?
Answer: 0.6535

Question: What about the “Internalisation, +GIP” value ([3]; Fig S4C, AD293) of the same molecule?
Answer: 49.3267

Question: And the “Internalisation, GIP-only” value ([3]; Fig S4C, AD293)?
Answer: 3.992

Question: What about the “Internalisation, Vehicle” value ([3]; Fig S4C, AD293) of the same molecule?
Answer: 45.335

Question: What about the “AD293 100 pM cADDis” value ([4]; AD293, 100 pM) of the same molecule?
Answer: -1.0843

Question: And the “AD293 100 nM cADDis” value ([4]; AD293, 100 nM)?
Answer: 18.64

Question: And the “AD293 100 pM HTRF” value ([5]; AD293, 100 pM)?
Answer: 0.04104

Question: And the “AD293 100 nM HTRF” value ([5]; AD293, 100 nM)?
Answer: 0.2411

Question: What about the “+GIP internalisation (100 nM)” value ([6]; Fig 4G, GIP 100 nM) of the same molecule?
Answer: 0.3116

Question: And the “GIP-specific internalisation (100 nM)” value ([6]; Fig 4G, GIP 100 nM)?
Answer: 0.02961

Question: And the “Constitutive internalisation (100 nM)” value ([6]; Fig 4G)?
Answer: 0.282

Question: What about the “Internalisation, +GIP” value ([6]; Fig S4C, INS-1) of the same molecule?
Answer: 37.4683

Question: What about the “Internalisation, GIP-only” value ([6]; Fig S4C, INS-1) of the same molecule?
Answer: 3.708

Question: What about the “Internalisation, Vehicle” value ([6]; Fig S4C, INS-1) of the same molecule?
Answer: 33.76

Question: And the “INS-1 cAMP (100 nM)” value [7]?
Answer: 0.04521
